According to patent US20190270826A1 (Janssen / Centocor, published 2019):
Read-outs that look alike come from different tables or passages of the source.

T1: human IL1RAP ECD displayed on HEK-293F cells (pDisplay) (human, UniProt Q9NPH3 21-367)
T1 construct: also called Human clone HE2 IL1RAP FL-ECD cell line
T1 sequence: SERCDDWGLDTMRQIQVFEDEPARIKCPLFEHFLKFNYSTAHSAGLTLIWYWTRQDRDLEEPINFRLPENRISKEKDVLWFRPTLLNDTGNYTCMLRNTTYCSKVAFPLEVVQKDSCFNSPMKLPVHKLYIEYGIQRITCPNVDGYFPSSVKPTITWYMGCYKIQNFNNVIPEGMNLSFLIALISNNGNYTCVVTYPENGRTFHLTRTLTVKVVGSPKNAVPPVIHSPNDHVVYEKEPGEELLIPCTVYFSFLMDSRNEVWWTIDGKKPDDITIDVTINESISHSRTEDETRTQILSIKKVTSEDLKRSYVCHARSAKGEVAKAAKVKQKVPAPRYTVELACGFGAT

T2: cyno IL1RAP ECD displayed on HEK-293F cells (pDisplay) (cynomolgus monkey, UniProt P59822 21-367 (rhesus entry))
T2 sequence: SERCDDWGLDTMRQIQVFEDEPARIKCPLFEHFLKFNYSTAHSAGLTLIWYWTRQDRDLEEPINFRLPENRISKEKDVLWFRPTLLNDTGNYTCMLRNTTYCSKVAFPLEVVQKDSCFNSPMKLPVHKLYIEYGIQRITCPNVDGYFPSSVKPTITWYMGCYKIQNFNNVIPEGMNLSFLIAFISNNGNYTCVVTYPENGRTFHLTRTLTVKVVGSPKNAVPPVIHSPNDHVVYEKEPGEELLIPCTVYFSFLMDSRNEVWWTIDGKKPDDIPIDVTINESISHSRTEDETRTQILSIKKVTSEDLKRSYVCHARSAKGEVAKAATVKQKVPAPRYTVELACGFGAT

T3: recombinant cyno IL1RAP ECD (cynomolgus monkey, UniProt P59822 21-367 (rhesus entry))
T3 construct: also called rcynoIL1RAP
T3 sequence: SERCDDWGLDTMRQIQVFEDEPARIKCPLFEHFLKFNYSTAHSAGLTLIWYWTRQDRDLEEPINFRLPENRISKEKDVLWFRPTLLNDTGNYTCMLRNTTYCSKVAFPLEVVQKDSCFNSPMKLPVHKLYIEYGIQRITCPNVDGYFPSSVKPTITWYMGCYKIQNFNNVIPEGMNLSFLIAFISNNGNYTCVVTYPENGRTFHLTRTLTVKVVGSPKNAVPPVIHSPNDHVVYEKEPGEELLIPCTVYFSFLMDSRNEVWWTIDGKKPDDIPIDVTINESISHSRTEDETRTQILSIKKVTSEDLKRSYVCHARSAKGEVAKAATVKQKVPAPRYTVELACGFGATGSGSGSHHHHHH

T4: recombinant human IL1RAP ECD (human, UniProt Q9NPH3 21-367)
T4 construct: His-tagged; also called hIL1RAP-ECD; rhuIL1RAP
T4 sequence: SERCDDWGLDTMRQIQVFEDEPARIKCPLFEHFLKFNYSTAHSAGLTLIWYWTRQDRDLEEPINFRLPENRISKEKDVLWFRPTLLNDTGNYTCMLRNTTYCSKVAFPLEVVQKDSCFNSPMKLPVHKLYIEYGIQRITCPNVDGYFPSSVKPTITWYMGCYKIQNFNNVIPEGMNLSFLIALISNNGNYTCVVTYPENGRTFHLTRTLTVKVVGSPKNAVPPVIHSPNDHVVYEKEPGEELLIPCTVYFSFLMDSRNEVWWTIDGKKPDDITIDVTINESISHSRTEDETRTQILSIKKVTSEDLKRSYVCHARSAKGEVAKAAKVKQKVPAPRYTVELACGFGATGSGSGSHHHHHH

T5: rat IL1RAP ECD displayed on HEK-293F cells (pDisplay) (rat, UniProt Q63621 21-367)
T5 sequence: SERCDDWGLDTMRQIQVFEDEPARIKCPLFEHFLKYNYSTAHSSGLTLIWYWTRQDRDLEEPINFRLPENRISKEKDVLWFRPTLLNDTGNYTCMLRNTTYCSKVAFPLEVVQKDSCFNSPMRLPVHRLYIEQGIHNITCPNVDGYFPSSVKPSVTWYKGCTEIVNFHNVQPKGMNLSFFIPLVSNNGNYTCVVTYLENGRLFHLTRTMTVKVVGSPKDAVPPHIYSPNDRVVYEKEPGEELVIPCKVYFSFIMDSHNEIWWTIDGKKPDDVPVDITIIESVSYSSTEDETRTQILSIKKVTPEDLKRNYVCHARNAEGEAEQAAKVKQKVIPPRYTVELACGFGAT

T6: mouse IL1RAP ECD displayed on HEK-293F cells (pDisplay) (mouse, UniProt Q61730 21-367)
T6 sequence: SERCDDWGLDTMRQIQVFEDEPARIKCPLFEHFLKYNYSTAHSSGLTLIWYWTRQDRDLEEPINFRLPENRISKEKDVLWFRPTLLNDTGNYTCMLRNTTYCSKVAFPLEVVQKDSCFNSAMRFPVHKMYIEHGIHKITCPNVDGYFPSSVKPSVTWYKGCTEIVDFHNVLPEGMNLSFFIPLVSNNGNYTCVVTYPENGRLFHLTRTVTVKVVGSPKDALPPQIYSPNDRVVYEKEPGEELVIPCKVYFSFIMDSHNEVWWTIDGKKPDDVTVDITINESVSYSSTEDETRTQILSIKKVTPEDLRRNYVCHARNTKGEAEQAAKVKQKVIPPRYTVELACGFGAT


Tests used:
[1] = target: T1, human IL1RAP ECD displayed on HEK-293F …; test: HEK-293F cells (MSD)
[2] = target: T2, cyno IL1RAP ECD displayed on HEK-293F …; test: HEK-293F cells (MSD)
[3] = target: T3, recombinant cyno IL1RAP ECD; test: recombinant protein
[4] = target: T4, recombinant human IL1RAP ECD; test: SPR (ProteOn)
Protocol: The rates of IL1RAP ECD association and dissociation were measured for each variant. The biosensor surface was prepared by covalently coupling Goat anti-Human IgG (Fc) to the surface of a GLC chip (BioRad) using the manufacturer instructions for amine-coupling chemistry. […] The RU immobilized also included a goat anti-mouse Fc antibody that was added to capture other antibodies not included in the ones reported here. Since the mixture was 1:1 about 50% of these RU immobilized are expected to be goat anti-human Fc. The kinetic experiments were performed at 25° C. in running buffer (PBS pH 7.4, 0.005% P20, 3 mM EDTA). […] (1:3) serial dilutions of human IL1RAP ECD, starting at 400 nM were prepared in running buffer. […] The reference spots (Goat anti-Human IgG (Fc)-modified surface) containing no candidate captured were used as a reference surface. Capture of mAb was followed by a 3 minute injection (association phase) of antigen at 40 μL/min, followed by 10 minutes of buffer flow (dissociation phase). […] Data was processed on the instrument software. Double reference subtraction of the data was performed by subtracting the curves generated by buffer injection from the reference-subtracted curves for analyte injections. Kinetic analysis of the data was performed using 1:1 Langmuir binding model with group fit.

[5] = target: T4, recombinant human IL1RAP ECD; test: SPR (ProteOn); remark: listed apart in the source
[6] = target: T4, recombinant human IL1RAP ECD; test: SPR; KD against parent IAPB4
[7] = target: T4, recombinant human IL1RAP ECD; test: SPR, summary
[8] = target: T5, rat IL1RAP ECD displayed on HEK-293F …; test: HEK-293F cells (MSD)
[9] = target: T6, mouse IL1RAP ECD displayed on HEK-293F …; test: HEK-293F cells (MSD)

Row | Binder | binding result [1] | binding result [2] | binding result [3] | Kd [4] | koff [4] | kon [4] | Kd [5] | koff [5] | kon [5] | Fold Different from parent [6] | Kd [7] | binding result [8] | binding result [9]
1 | IAPB62 (antibody, human IgG4 S228P, kappa, F234A L235A, V domains shown, IgG4-PAA; whole chains) VH: QVQLVQSGSELKKPGASVKVSCKASGYTFNTYAMNWVRQAPGQGLEWMGWINTNTGNPTYAQGFTGRFVFSLDTSVSTAYLQISSLKAEDTAVYYCARRYFDWLLGAFDIWGQGTMVTVSS VL: DIQMTQSPSSVSASVGDRVTITCRASQGISSWLAWYQQKPGKAPKLLIYAASSLQSGVPSRFSGSGSGTDFTLTISSLQPEDFATYYCQQANSFPLTFGGGTKVEIKR | binds | binds | binds | – | – | – | – | – | – | – | – | – | –
2 | IAPB04 (antibody, human IgG4 S228P, kappa, F234A L235A, V domains shown, IgG4-PAA; also called IAPB4; phage hit B4) VH: QVQLVQSGAEVKKPGSSVKVSCKASGGTFSSYAISWVRQAPGQGLEWMGGISAIFGTANYAQKFQGRVTITADESTSTAYMELSSLRSEDTAVYYCARHLHNGIHLDYWGQGTLVTVSS VL: EIVLTQSPATLSLSPGERATLSCRASQSVSNFLAWYQQKPGQAPRLLIYGASNRATGIPARFSGSGSGTDFTLTISSLEPEDFAVYYCQQGKHWPWTFGQGTKVEIKR | – | binds | binds | 5.66 nM | 0.00144 s⁻¹ | 255000 M⁻¹ s⁻¹ | 4.73 nM | 0.0014 s⁻¹ | 295000 M⁻¹ s⁻¹ | 1 fold | 5.66 nM | – | –
3 | IAPB38 (antibody, human IgG4 S228P, kappa, F234A L235A, V domains shown, IgG4-PAA; whole chains) VH: EVQLLESGGGLVQPGGSLRLSCAASGFTFSNYAMNWVRQAPGKGLEWVSGINYGGGSKYYADSVKGRFTISRDNSKNTLYLQMNSLRAEDTAVYYCAKDYGPFALDYWGQGTLVTVSS VL: EIVLTQSPATLSLSPGERATLSCRASQSVDDWLAWYQQKPGQAPRLLIYTASNRATGIPARFSGSGSGTDFTLTISSLEPEDFAVYYCQQYHHWPLTFGQGTKVEIKR | binds | binds | binds | – | – | – | – | – | – | – | – | binds | binds
